Experimental data: US20110165161A1, “ANTI-EPCAM ANTIBODIES THAT INDUCE APOPTOSIS OF CANCER CELLS AND METHODS USING SAME” (priority 2009, published 2011)

B1: 1G10: murine anti-human EpCAM monoclonal antibody (IgG1, K), hybridoma m290-1G10; VH SEQ ID NO:7, VL SEQ ID NO:9 (antibody, listed as Mus musculus, V domains shown)
VH: QIQLVQSGPELKKPGETVKISCKASGYTFTNYGMNWVKQAPGKGFKWMGWINTYTGEPTYADDFKGRFAFSLETSASTAYLQINNLQNEDMATYFCARWGYDFDYWGQGTTLTVSS
VL: QIVLTQSPAIMSSSPGEKVTMTCSASSSISYMNWYQQKPGTSPKRWIYDTSKLASGVPARFSGSGSGTSYSLTISSMEAEDAATYYCHQRSSYPYTFGGGTKLEIKR
B2: 1F10: murine anti-human EpCAM monoclonal antibody (IgG1, λ1), hybridoma m338-1F10.3; VH SEQ ID NO:11, VL SEQ ID NO:13 (antibody, listed as Mus musculus, V domains shown)
VH: EVKLLESGGGLVQPGGSLKLSCAASGFDFSRYWMSWVRQAPGKGLEWIGEINPDSSTMNYTPSLKDKFIISRDNAKNTLYLQMSKVRSEDTALYYCARGAYAMDYWGQGTSVTVSS
VL: QAVVTQESALTTSPGETVTLTCRSSTGAVTTSNNANWVQEKPDHLFTGLIGATNNRAPGVPARFSGSLIGDKAALTITGAQTEDEAIYFCALWYINHWVFGGGTKLTVLG

Key:
[1] = system: Pharynx cancer FaDu cells; assay: Antibody cytotoxicity assay (Annexin V + PI), FaDu; assay type: cell-based; settings: for Induction of cell death (in words): 1, 3 and 10 μg/ml, overnight; for Cytotoxic effect (Annexin V + PI staining, dead cells): 17-20 hr
Description: After a 17-20 hr incubation at 37° C., cells were stained with 0.3 μl of FITC-conjugated Annexin V (Strong Biotech Corp. Cat. No. AVK250) in 50 μl Annexin V binding buffer (Strong Biotech Corp. Cat. No. AVK250) at RT for 20 min. After wash, the cells were then stained with 0.3 μl of propidium iodide in 200 μl Annexin V binding buffer. Annexin V and Propidium Iodide were used as a joint indicator for cell death. The data were acquired with BD FACSCalibur based on an acquisition of 3,000-5,000 cells and analyzed with the Cell Quest software. The combined percentages of the Annexin V+/PI+, Annexin V+/PI− and Annexin V−/PI+populations were considered as dead cells.

[2] = system: NCI-H358 lung cancer cells; assay: Cell death in NCI-H358 lung cancer cells (Annexin V + PI); assay type: cell-based, human; settings: mAb 10 μg/ml, 17 hr; for % of Annexin V + PI staining (untreated background subtracted), Mean ± SEM: mean of 5 experiments
Description: 5×10^4 NCI-H358 cells were seeded to each well of a 96-well plate, and then 10 μg/ml of anti-EpCAM or control (9E10) mAbs diluted in the medium was added into the cells. After a 17-hr incubation at 37° C., the cells were stained with 0.3 μl of FITC-conjugated Annexin V (Strong Biotech Corp. Cat. No. AVK250) in 50 μl Annexin V binding buffer (Strong Biotech Corp. Cat. No. AVK250) at RT for 20 min. After wash, the cells were then stained with 0.3 μl of propidium iodide in 200 μl Annexin V binding buffer. Annexin V and Propidium Iodide were used as a joint indicator for measuring cell death. The data were acquired with BD FACSCalibur based on an acquisition of 3,000-5,000 cells and analyzed with the Cell Quest software. The combined percentages of the Annexin V+/PI+, Annexin V+/PI− and Annexin V−/PI+populations were considered as dead cells.

Molecule | Induction of cell death (in words) [1] | Cytotoxic effect (Annexin V + PI staining, dead cells) ([1]; mAb 1.0 μg/ml) [%] | Cytotoxic effect (Annexin V + PI staining, dead cells) ([1]; mAb 3.0 μg/ml) [%] | Cytotoxic effect (Annexin V + PI staining, dead cells) ([1]; mAb 10 μg/ml) [%] | % of Annexin V + PI staining (untreated background subtracted) ([2]; Exp1) [%] | % of Annexin V + PI staining (untreated background subtracted) ([2]; Exp2) [%] | % of Annexin V + PI staining (untreated background subtracted) ([2]; Exp3) [%] | % of Annexin V + PI staining (untreated background subtracted) ([2]; Exp4) [%] | % of Annexin V + PI staining (untreated background subtracted) ([2]; Exp5) [%] | % of Annexin V + PI staining (untreated background subtracted), Mean ± SEM [2] [%]
B1 | substantial cell death | 40 | 50 | 51 | 46 | 42 | 48 | 47 | 42 | 45.0 ± 1.3
B2 | substantial cell death | 44 | 42 | 45 | 32 | 30 | 40 | 39 | 37 | 35.6 ± 2.0
